Test results published in article PMC11169713 (Frontiers in Immunology, 2024).

Experiments:
[1] = biological target: biotinylated H5 A/Indonesia/5/2005 hemagglutinin (Influenza A virus A/Indonesia/5/2005 …, UniProt A5A5L7, strain, biotin (site not stated))
[2] = biological target: biotinylated H1 A/California/04/2009 hemagglutinin (Influenza A virus A/California/04/2009 …, UniProt C3W5S1, strain, biotin (site not stated))
[3] = biological target: biotinylated H7 A/Shanghai/02/2013 hemagglutinin (Influenza A virus A/Shanghai/02/2013 …, UniProt R4NN21, strain, biotin (site not stated))

Measured: binding result

B1: L5A7.1 (antibody, V domains shown)
VH: QVQLQQSGPGLVKPSQTLSLTCVISGDSVSSNSAAWDWIRQSPSRGLEWLGRTYYRSKWYSDYAVSVKSRITITPDTSKNQFSLHLNSVTPEDTAVYYCARAGVRIFGVIVDSLDYWGQGTLVTVSS
VL: AIQLTQSPSSLSASVGDRVTITCRASQALNSYLAWYQQKPGKAPKLLIFAASTLQSGVPSRFSGSGSGTDFTLTISSLQPEDFATYYCQLSKTFGPGTRVDIE
binds: all assays above

B2: L5A7.2 (antibody, V domains shown)
VH: QVQLQQSGPGLVKPSQTLSLTCVISGDSVSSNSAAWDWIRQTPSRGLEWLGRTYYRSKWYSDYAVSVKSRITITPDTSKNQFSLRLNSVTPEDTAVYYCARAGVRVFGVIVDSLDYWGQGTLVTVSS
VL: AIQLTQSPSSLSASVGDRVTITCRASQGFSSYLAWYQQKPGKAPQLLIYAASTLQSGVPSRFSGSGSGTDFTLTISSLQPEDFATYYCQQSKTFGPGTRVDIE
binds: all assays above

B3: L5A7.3 (antibody, V domains shown)
VH: QVQLQQSGPGLVKPSQTLSLTCVISGDSVSSNTAAWDWIRQSPSRGLEWLGRTYYRSRWYSDYADSVKSRITITPDTSKNQFSLHLNSVTPEDTAVYYCARAGIRIFGIIVDSLDYWGQGTLVTVSS
VL: AIQLTQSPSSLSASVGDRVTITCRASQGANSYLAWYQQKPGKAPKLLIYAASTLQSGVPSRFSGSGSGTDFSLTISSLQPEDFATYYCQESKTFGPGTRVDIE
binds: all assays above

B4: L5A7.4 (antibody, V domains shown)
VH: QVQLQQSGPRLVKPSQTLSLTCAISGDSVSSTSAAWDWIRQSSSRGLEWLGRTYYRSRWYHDYEESVKSRITINADTSKNQFSLQLASVTPEDTAVYYCARAGIRVFGIIVDSLDYWGQGSLVTVSS
VL: AIQLTQSPSSLSASVGDRVTITCRASQGFNSYLAWYQQKPGKAPELLIYAASTLQSGVPSRFSGSGSGTDFTLTISSLQPEDFATYYCQQSKTFGPGTKVDIK
binds: all assays above
